Results from patent publication US20240132593A1.

Key:
RFQ-VISTA-ECD-Fc (human) = experiment: ELISA, 10 ug/mL antibody on plate-bound mutant VISTA-Fc
[1] = molecular target: 2.1C-VISTA-ECD-Fc (human); experiment: ELISA on plate-bound VISTA-ECD-Fc
4.1-VISTA-ECD-Fc (human) = experiment: ELISA on plate-bound VISTA-ECD-Fc
5.1-VISTA-ECD-Fc (human) = experiment: ELISA on plate-bound VISTA-ECD-Fc
Sequence of 5.1-VISTA-ECD-Fc (human) (chain, as listed by the source): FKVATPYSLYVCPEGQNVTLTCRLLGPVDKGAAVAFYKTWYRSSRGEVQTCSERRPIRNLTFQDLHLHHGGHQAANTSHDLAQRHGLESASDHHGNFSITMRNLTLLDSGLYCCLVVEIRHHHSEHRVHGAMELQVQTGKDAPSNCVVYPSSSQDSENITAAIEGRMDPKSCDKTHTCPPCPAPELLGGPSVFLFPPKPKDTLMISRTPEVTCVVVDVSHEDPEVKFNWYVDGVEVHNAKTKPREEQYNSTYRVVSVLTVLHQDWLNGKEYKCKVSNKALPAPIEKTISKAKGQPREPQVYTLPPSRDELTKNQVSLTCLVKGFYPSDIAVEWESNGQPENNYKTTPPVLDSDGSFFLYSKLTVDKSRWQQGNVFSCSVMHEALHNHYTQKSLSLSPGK

Sequence of 2.1C-VISTA-ECD-Fc (human) (chain, as listed by the source): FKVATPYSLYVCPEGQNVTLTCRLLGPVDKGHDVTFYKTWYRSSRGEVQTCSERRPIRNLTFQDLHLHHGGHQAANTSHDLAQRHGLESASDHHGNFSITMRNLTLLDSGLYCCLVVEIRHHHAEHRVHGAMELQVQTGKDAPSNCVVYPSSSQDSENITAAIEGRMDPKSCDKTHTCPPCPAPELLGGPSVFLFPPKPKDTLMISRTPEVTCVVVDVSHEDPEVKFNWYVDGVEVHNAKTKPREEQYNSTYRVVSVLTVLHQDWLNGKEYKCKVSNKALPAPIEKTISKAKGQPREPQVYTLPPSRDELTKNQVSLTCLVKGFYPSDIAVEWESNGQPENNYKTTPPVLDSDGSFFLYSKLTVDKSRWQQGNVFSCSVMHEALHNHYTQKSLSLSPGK
Sequence of RFQ-VISTA-ECD-Fc (human) (chain, as listed by the source): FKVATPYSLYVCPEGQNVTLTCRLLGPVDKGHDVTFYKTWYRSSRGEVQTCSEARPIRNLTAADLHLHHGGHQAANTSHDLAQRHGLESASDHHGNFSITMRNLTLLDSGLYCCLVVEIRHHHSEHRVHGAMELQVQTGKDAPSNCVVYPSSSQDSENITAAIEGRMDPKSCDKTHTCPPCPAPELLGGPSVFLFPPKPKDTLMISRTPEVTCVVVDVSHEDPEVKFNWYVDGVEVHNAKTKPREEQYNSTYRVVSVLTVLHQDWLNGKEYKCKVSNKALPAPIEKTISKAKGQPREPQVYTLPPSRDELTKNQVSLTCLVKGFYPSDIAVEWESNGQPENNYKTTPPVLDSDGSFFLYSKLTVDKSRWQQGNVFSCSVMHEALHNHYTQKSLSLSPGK
Sequence of 4.1-VISTA-ECD-Fc (human) (chain, as listed by the source): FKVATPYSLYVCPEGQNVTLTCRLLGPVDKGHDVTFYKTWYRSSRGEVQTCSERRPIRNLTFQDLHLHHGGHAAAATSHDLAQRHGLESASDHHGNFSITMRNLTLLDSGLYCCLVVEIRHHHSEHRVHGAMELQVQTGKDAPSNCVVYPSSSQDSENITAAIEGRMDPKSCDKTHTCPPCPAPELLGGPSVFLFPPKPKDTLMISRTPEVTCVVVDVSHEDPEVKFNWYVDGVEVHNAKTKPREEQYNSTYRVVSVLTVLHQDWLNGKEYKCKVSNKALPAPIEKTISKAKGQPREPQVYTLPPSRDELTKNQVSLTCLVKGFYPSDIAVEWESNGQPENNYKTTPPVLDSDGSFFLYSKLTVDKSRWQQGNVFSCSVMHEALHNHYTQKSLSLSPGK

IgG1 (antibody) gave an ELISA Abs 450 nm (RFQ-VISTA-ECD-Fc (human)) of 0.019 Abs 450 nm, an EC50 [1] of 100 µg/mL and an EC50 (4.1-VISTA-ECD-Fc (human)) of 100 µg/mL. For the same substance, the EC50 (5.1-VISTA-ECD-Fc (human)) was 100 µg/mL.
